This is an account of results in article PMC4895224.

The test addresses 2-Cysteine peroxiredoxin (BxPrx) of Bursaphelenchus xylophilus (Bursaphelenchus xylophilus (endogenous in the nematode)). The test can be described thus: SDS-PAGE and immunoblot of the inter-molecular dimer; nematodes incubated in 0, 1 and 5 mM H2O2 for 5 min, harvested in 20% TCA, resuspended in SDS-PAGE loading buffer, 12% SDS-PAGE, Western blot with anti-BxPrx serum; 80 ug protein extract per lane.

By stoichiometry N is commonly meant the number of molecules, sites or subunits per partner or assembly. For the substance “2-Cysteine peroxiredoxin (BxPrx) of Bursaphelenchus xylophilus (natural protein)”, the stoichiometry N is 2.
